In experiment [1] the target is T1, Ep-CAM (Epithelial Cell Adhesion Molecule) (UniProt P16422 24-314, limits assumed).
T1 construct: whole, on cells; Endogenous antigen on tumour cell lines; also called 17-1A; KSA
T1 sequence (looked up): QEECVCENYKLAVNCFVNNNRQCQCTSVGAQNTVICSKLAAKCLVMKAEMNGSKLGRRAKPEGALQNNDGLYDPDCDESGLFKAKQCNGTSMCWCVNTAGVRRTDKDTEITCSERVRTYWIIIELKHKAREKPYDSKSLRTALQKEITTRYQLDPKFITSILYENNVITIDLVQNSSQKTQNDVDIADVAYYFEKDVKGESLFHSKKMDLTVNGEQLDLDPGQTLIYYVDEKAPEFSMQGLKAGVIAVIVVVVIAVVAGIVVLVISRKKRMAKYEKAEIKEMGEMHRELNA
Nature of the experiment: flow cytometry on CAL 27 cells (Ep-CAM-positive).

For experiment [2], the target named is T1, Ep-CAM (Epithelial Cell Adhesion …). Nature of the experiment: flow cytometry on NIH:OVCAR-3 cells (Ep-CAM-positive). (In general: A flow cytometer gives signals particle by particle.)
The target is the same in experiment [3]. The experiment in a line: flow cytometry on NIH:OVCAR-3 cells (Ep-CAM-positive); one representative experiment.
Experiment [4] has the same target. Nature of the experiment: flow cytometry on CAL 27 cells (Ep-CAM-positive); one representative experiment.

B1: VB6-845-F-de-bouganin (Fab)
chain 1: HHHHHHEVQLVQSGPGLVQPGGSVRISCAASGYTFTNYGMNWVKQAPGKGLEWMGWINTYTGESTYADSFKGRFTFSLDTSASAAYLQINSLRAEDTAVYYCARFAIKGDYWGQGTLLTVSSASTKGPSVFPLAPSSKSTSGGTAALGCLVKDYFPEPVTVSWNSGALTSGVHTFPAVLQSSGLYSLSSVVTVPSSSLGTQTYICNVNHKPSNTKVDKKVEPKSC
chain 2: DIQMTQSPSSLSASVGDRVTITCRSTKSLLHSNGITYLYWYQQKPGKAPKLLIYQMSNLASGVPSRFSSSGSGTDFTLTISSLQPEDFATYYCAQNLEIPRTFGQGTKVELKRTVAAPSVFIFPPSDEQLKSGTASVVCLLNNFYPREAKVQWKVDNALQSGNSQESVTEQDSKDSTYSLSSTLTLSKADYEKHKVYACEVTHQGLSSPVTKSFNRGECTRHRQPRGWEQLYNTVSFNLGEAYEYPTFIQDLRNELAKGTPVCQLPVTLQTIADDKRFVLVDITTTSKKTVKVAIDVTDVYVVGYQDKWDGKDRAVFLDKVPTVATSKLFPGVTNRVTLTFDGSYQKLVNAAKADRKALELGVNKLEFSIEAIHGKTINGQEAAKFFLIVIQMVSEAARFKYIETEVVDRGLYGSFKPNFKVLNLENNWGDISDAIHKSSPQCTTINPALQLISPSNDPWVVNKVSQISPDMGILKFKSSK
notes: also called VB6-845L-F-de-bouganin
As for B1, the “Median Fold (MF) increase” value in experiment [1] was 63.6 fold; in experiment [2] it was 130 fold.

B2: VB6-845-CB1-CD-de-bouganin (Fab)
chain 1: B1 chain 1
chain 2: DIQMTQSPSSLSASVGDRVTITCRSTKSLLHSNGITYLYWYQQKPGKAPKLLIYQMSNLASGVPSRFSSSGSGTDFTLTISSLQPEDFATYYCAQNLEIPRTFGQGTKVELKRTVAAPSVFIFPPSDEQLKSGTASVVCLLNNFYPREAKVQWKVDNALQSGNSQESVTEQDSKDSTYSLSSTLTLSKADYEKHKVYACEVTHQGLSSPVTKSFNRGECQGVGFLGTQFFYNTVSFNLGEAYEYPTFIQDLRNELAKGTPVCQLPVTLQTIADDKRFVLVDITTTSKKTVKVAIDVTDVYVVGYQDKWDGKDRAVFLDKVPTVATSKLFPGVTNRVTLTFDGSYQKLVNAAKADRKALELGVNKLEFSIEAIHGKTINGQEAAKFFLIVIQMVSEAARFKYIETEVVDRGLYGSFKPNFKVLNLENNWGDISDAIHKSSPQCTTINPALQLISPSNDPWVVNKVSQISPDMGILKFKSSK
notes: also called CB1-CD construct
For the molecule B2, the results for the “Median Fold (MF) increase” value in experiment [3] and in experiment [4] were 110 fold and 68 fold, respectively.

B3: VB6-845-F1R-de-bouganin (Fab)
chain 1: B1 chain 1
chain 2: DIQMTQSPSSLSASVGDRVTITCRSTKSLLHSNGITYLYWYQQKPGKAPKLLIYQMSNLASGVPSRFSSSGSGTDFTLTISSLQPEDFATYYCAQNLEIPRTFGQGTKVELKRTVAAPSVFIFPPSDEQLKSGTASVVCLLNNFYPREAKVQWKVDNALQSGNSQESVTEQDSKDSTYSLSSTLTLSKADYEKHKVYACEVTHQGLSSPVTKSFNRGECTRHRRKRSVYNTVSFNLGEAYEYPTFIQDLRNELAKGTPVCQLPVTLQTIADDKRFVLVDITTTSKKTVKVAIDVTDVYVVGYQDKWDGKDRAVFLDKVPTVATSKLFPGVTNRVTLTFDGSYQKLVNAAKADRKALELGVNKLEFSIEAIHGKTINGQEAAKFFLIVIQMVSEAARFKYIETEVVDRGLYGSFKPNFKVLNLENNWGDISDAIHKSSPQCTTINPALQLISPSNDPWVVNKVSQISPDMGILKFKSSK
notes: also called F1R linker construct
For B3, the “Median Fold (MF) increase” value in experiment [1] amounted to 55 fold; in experiment [2], 112 fold.

Source of the values: patent publication US20100215670A1 (published 2010).
